Measurements published in publication PMC11257990.
“And” between values parts separate entries of the source, which are not always exact repeats. Equal entries are not always repeated.

Molecular target: CUL9 (endogenous, U2OS) (human (endogenous in U2OS)) (UniProt Q8IWT3)
Test: sucrose gradient fractionation; 1 mg U2OS lysate on a continuous 5–40% sucrose gradient, 160,000g, 16 h, 4 °C; fractions immunoblotted for CUL9; purified hexameric CUL9–RBX1 and dimeric CUL9^(R125A Y152A)–RBX1 run for comparison
Conditions: remark: other sources report otherwise

CUL9 (endogenous, U2OS), Q8IWT3 1-2517
stoichiometry N: 6 and 2
